Bounds are passed on as bounds.

Test [1] concerns the target HLA-B*18:01. In words: IEDB peptide-MHC binding, purified MHC/competitive/radioactivity; filed as Kd, often an IC50 or EC50 that approximates it; ≥ and ≤ were set here for values at or beyond the usual limits of such assays.
Test [2] has as its target HLA-B*40:01. The test is described as above.
In the next test the target is HLA-B*45:01. The description is as above.
The target in test [3] is HLA-B*44:02. The description is as above.
The target of another test is HLA-B*44:03. Described as above.
Another test deals with HLA-B*40:02. The description is as above.
The next test concerns the target HLA-B*39:01. In words: IEDB peptide-MHC binding, purified MHC/competitive/fluorescence; filed as Kd, often an IC50 or EC50 that approximates it; ≥ and ≤ were set here for values at or beyond the usual limits of such assays. The settings on record: source organism: West Nile virus.
Test [4] concerns the target HLA-B*18:01. In words: IEDB peptide-MHC binding, purified MHC/direct/fluorescence; filed as Kd, often an IC50 or EC50 that approximates it; ≥ and ≤ were set here for values at or beyond the usual limits of such assays. The settings on record: source organism: West Nile virus.
A further test addresses HLA-A*31:01. Described as above. The settings on record: source organism: West Nile virus.
For a further test, the target named is HLA-A*01:01. Described as above. The settings on record: source organism: West Nile virus.
Test [5] concerns the target HLA-B*40:01. The description is as above. The conditions noted are these: source organism: West Nile virus.
The target in the next test is HLA-B*07:02. Described as above. The conditions noted are these: source organism: West Nile virus.
In another test the target is HLA-B*15:01. Described as above. The conditions noted are these: source organism: West Nile virus.
For the next test, the target named is HLA-A*69:01. Described as above. The conditions noted are these: source organism: West Nile virus.
For another test, the target named is HLA-A*11:01. The test is described as above. The settings on record: source organism: West Nile virus.
In test [6] the target is HLA-B*44:02. The description is as above. The conditions noted are these: source organism: West Nile virus.
In the next test the target is HLA-B*46:01. The description is as above. The settings on record: source organism: West Nile virus.
For the next test, the target named is HLA-A*03:01. The description is as above. The conditions noted are these: source organism: West Nile virus.
The target in a further test is HLA-A*02:01. The description is as above. The conditions noted are these: source organism: West Nile virus.
For another test, the target named is HLA-B*57:01. The test is described as above. The settings on record: source organism: West Nile virus.
In the next test the target is HLA-B*48:01. Described as above. The conditions noted are these: source organism: West Nile virus.
The next test deals with HLA-B*27:05. The test is described as above. The settings on record: source organism: West Nile virus.
The next test deals with HLA-B*58:01. The description is as above. The settings on record: source organism: West Nile virus.
The mark [7] stands for this setting: source organism: Mammarenavirus machupoense.
[8] abbreviates: source organism: SARS coronavirus Tor2.
[9] abbreviates: source organism: Mammarenavirus lassaense.

As to RECYVQRFYL, the equilibrium dissociation constant (Kd) (in general, the equilibrium constant for the complex coming apart) in the test with HLA-B*18:01 [1] (setting [7]) was found to be 0.518 µM; in the test with HLA-B*40:01 [2] (setting [7]) it was 9010 nM; in the test with HLA-B*45:01 (setting [7]) it was 1560 nM; in the test with HLA-B*44:02 [3] (setting [7]), 1640 nM; with HLA-B*44:03 (setting [7]) it was 1100 nM; with HLA-B*40:02 (setting [7]), 5.3 nM.

AESHMDADLA: the Kd with HLA-B*18:01 [1] (setting [8]) was at least 48 µM; in the test with HLA-B*40:01 [2] (setting [8]), 163 nM; with HLA-B*45:01 (setting [8]) it was 8.31 nM; with HLA-B*44:02 [3] (setting [8]) it was 1330 nM; in the test with HLA-B*44:03 (setting [8]), 1120 nM; in the test with HLA-B*40:02 (setting [8]), 63.1 nM.

With FEYISDAFSL, the dissociation constant Kd with HLA-B*18:01 [1] (setting [8]) stood at 1.8 µM; with HLA-B*40:01 [2] (setting [8]) it was 1.66 nM; with HLA-B*45:01 (setting [8]) it was 6380 nM; with HLA-B*44:02 [3] (setting [8]), 3210 nM; with HLA-B*44:03 (setting [8]) it was 1450 nM; in the test with HLA-B*40:02 (setting [8]), 838 nM.

Take GEVLSLDKL: the Kd with HLA-B*18:01 [1] (setting [8]) is at least 77.5 µM; with HLA-B*40:01 [2] (setting [8]) it was 10.9 nM; with HLA-B*45:01 (setting [8]), 17300 nM; with HLA-B*44:02 [3] (setting [8]), 7880 nM; in the test with HLA-B*44:03 (setting [8]), 2330 nM; with HLA-B*40:02 (setting [8]), 30.7 nM.

On to LEGSISYSEL, for which the Kd is at least 45 µM with HLA-B*18:01 [1] (setting [8]); 61.7 nM with HLA-B*40:01 [2] (setting [8]); 2210 nM with HLA-B*45:01 (setting [8]); 5580 nM with HLA-B*44:02 [3] (setting [8]); 1500 nM with HLA-B*44:03 (setting [8]); 156 nM with HLA-B*40:02 (setting [8]).

As for LEGSVRVVT, the equilibrium dissociation constant (Kd) with HLA-B*18:01 [1] (setting [8]) is 16.9 µM; with HLA-B*40:01 [2] (setting [8]), 795 nM; with HLA-B*45:01 (setting [8]), 59.1 nM; with HLA-B*44:02 [3] (setting [8]), 951 nM; with HLA-B*44:03 (setting [8]) it was 986 nM; with HLA-B*40:02 (setting [8]), 69.9 nM.

As to SDRVVFVLWA, the Kd with HLA-B*18:01 [1] (setting [8]) was at least 26.4 µM; with HLA-B*40:01 [2] (setting [8]) it was 14700 nM; with HLA-B*45:01 (setting [8]), 1950 nM; in the test with HLA-B*44:02 [3] (setting [8]), 654 nM; in the test with HLA-B*44:03 (setting [8]), 736 nM; with HLA-B*40:02 (setting [8]), 16700 nM.

For KDPLITSGC, the Kd was at least 77.5 µM with HLA-B*18:01 [1] (setting [9]); 17300 nM with HLA-B*40:01 [2] (setting [9]); at least 77100 nM in the test with HLA-B*45:01 (setting [9]); at least 77900 nM in the test with HLA-B*44:02 [3] (setting [9]); at least 78100 nM with HLA-B*44:03 (setting [9]); 4500 nM with HLA-B*40:02 (setting [9]).

As to VHREWFMDL, the Kd with HLA-B*39:01 is 1480 nM; with HLA-B*18:01 [4] it was at least 20 µM; in the test with HLA-A*31:01 it was at least 20 µM; in the test with HLA-A*01:01, at least 20 µM; with HLA-B*40:01 [5] it was at least 20 µM; with HLA-B*07:02, at least 20 µM. The equilibrium dissociation constant (Kd) with HLA-B*15:01, with HLA-A*69:01, with HLA-A*11:01, in the test with HLA-B*44:02 [6], with HLA-B*46:01 and in the test with HLA-A*03:01 was at least 20 µM each time. The Kd with HLA-A*02:01, with HLA-B*57:01, with HLA-B*48:01, with HLA-B*27:05 and with HLA-B*58:01 was at least 20 µM throughout.

For the sequence LEGYAFEHIV, the Kd with HLA-B*18:01 [1] (setting [8]) is 1.12 µM; with HLA-B*40:01 [2] (setting [8]), 17400 nM; with HLA-B*45:01 (setting [8]), 316 nM; in the test with HLA-B*44:02 [3] (setting [8]), at least 51700 nM; in the test with HLA-B*44:03 (setting [8]), at least 28400 nM; with HLA-B*40:02 (setting [8]), 1790 nM.
